The values below come from patent US20150118747A1, “ELECTROSTRETCHED POLYMER MICROFIBERS FOR MICROVASCULATURE DEVELOPMENT” (The Johns Hopkins University, priority 2013, published 2015).

Series [1] deals with ECFCs. The series is described as follows: Actin and microtubule disruption studies, ECFCs on fibrin microfibers. The series is classed as cell-based, Human. The conditions noted are these: for actin and microtubule organization, respectively / wrapping organization of the deposited ECM molecules compared to control cultures: ECFCs seeded on nanopatterned fibrin microfibers; for average angle of ECM orientation or variance of all angles, vs no drug: drug added 24 h after ECFC seeding on fibrin microfibers, 24 and 48 hrs of treatment. The procedure:
The cell areas and perimeters were measured by fitting an ellipse to each cell using the LSM 510 software. Cytoskeletal alignment angle was calculated by measuring the angle between the long axis of each ellipse and the longitudinal axis of the microfiber, found by drawing a line at the edges of the microfiber in its image projection. ECM angle of orientation was measured using the LSM 510 software by drawing a line following the ECM deposition and finding the angle between the line and the longitudinal axis of the microfiber. Graphs were plotted with 5-95% confidence intervals. Unpaired two-tailed Welch-corrected t-tests were performed where appropriate (GraphPad Prism® 5.01, GraphPad Software, San Diego, Calif.). Significance levels were determined between samples examined and were set at *p<0.05, **p<0.01, and ***p<0.001.
Cytochalasin D or nocodazole were dissolved in DMSO (Table 1). ECFCs were cultured on Petri dishes (control) or fibrin microfibers in ECFC media with 50 ng/mL of VEGF (Pierce, Rockford, Ill., USA) supplemented with either […] cytochalasin D or […] nocodazole, from either day 0 or day 1 after seeding. F-actin or a-tubulin organization and ECM deposition was analyzed after 1, 2, or 3 days of treatment. Final concentration of DMSO in cell culture medium was kept at 0.1% (v/v). Controls were treated with DMSO alone at the same concentration.

The next series deals with fibrin microfibers. The series is described as follows: Plasmin treatment: degradation of fibrin microfibers without cells. The series is classed as biochemical. As to conditions: serum-free media. The procedure:
(§1) Fibrin microfibers with or without cells were treated with 15, 1, 0.25, and 0.1 CU/mL plasmin from human plasma (Athens Research and Technology, Athens, Ga.) in DMEM (Life Technologies, Grand Island, N.Y.) for 1, 6, 12, and 24 hrs respectively in a humidified incubator at 37° C. in a 5% CO2 atmosphere. Samples were imaged immediately after treatment.
The fibrin microfiber core was degraded after endothelial cell (EC) layer formation while maintaining both cellular viability and intact ECM organization. Fibrin microfibers without cells were treated with different concentrations of plasmin.

Series [2] relates to ECFCs. Put plainly: Live/Dead assay of ECFCs after plasmin treatment. In kind it is cell-based. As to conditions: for cell viability: confluent ECFCs, data not shown; for live cells: confluent ECFCs in 2D, serum-free. The procedure:
as §1
ECFCs cultured in 2D and treated with plasmin were incubated with 2 μM calcein AM and 4 μM ethidium homodimer (Invitrogen) in PBS for 30 min at 37° C. and 5% CO2. Samples were imaged immediately after and the number of live and dead cells was counted using ImageJ (NIH, Bethesda, Md.).

In the case of `COC(=O)Nc1nc2ccc(C(=O)c3cccs3)cc2[nH]1` [nocodazole], in the series with ECFCs [1], the “actin and microtubule organization, respectively” value is listed as “effectively altered”; the “wrapping organization of the deposited ECM molecules compared to control cultures” value is reported as “did not alter”; the “average angle of ECM orientation or variance of all angles, vs no drug” value is “no difference”.

In the case of `C=C1[C@@H](C)[C@H]2[C@H](Cc3ccccc3)NC(=O)[C@]23[C@H](OC(C)=O)/C=C/[C@@](C)(O)C(=O)[C@@H](C)C/C=C/[C@H]3[C@@H]1O` [Cytochalasin D], in the series on ECFCs [1], the “actin and microtubule organization, respectively” value was “effectively altered”; the “wrapping organization of the deposited ECM molecules compared to control cultures” value is given as “did not alter”; the “average angle of ECM orientation or variance of all angles, vs no drug” value is “No difference”.

B1: plasmin: plasmin from human plasma (Athens Research and Technology), enzyme that degrades fibrin (protein, UniProt P00747 20-580; P00747 581-810, looked up)
Plasmin heavy chain A: EPLDDYVNTQGASLFSVTKKQLGAGSIEECAAKCEEDEEFTCRAFQYHSKEQQCVIMAENRKSSIIIRMRDVVLFEKKVYLSECKTGNGKNYRGTMSKTKNGITCQKWSSTSPHRPRFSPATHPSEGLEENYCRNPDNDPQGPWCYTTDPEKRYDYCDILECEEECMHCSGENYDGKISKTMSGLECQAWDSQSPHAHGYIPSKFPNKNLKKNYCRNPDRELRPWCFTTDPNKRWELCDIPRCTTPPPSSGPTYQCLKGTGENYRGNVAVTVSGHTCQHWSAQTPHTHNRTPENFPCKNLDENYCRNPDGKRAPWCHTTNSQVRWEYCKIPSCDSSPVSTEQLAPTAPPELTPVVQDCYHGDGQSYRGTSSTTTTGKKCQSWSSMTPHRHQKTPENYPNAGLTMNYCRNPDADKGPWCFTTDPSVRWEYCNLKKCSGTEASVVAPPPVVLLPDVETPSEEDCMFGNGKGYRGKRATTVTGTPCQDWAAQEPHRHSIFTPETNPRAGLEKNYCRNPDGDVGGPWCYTTNPRKLYDYCDVPQCAAPSFDCGKPQVEPKKCPGR
Plasmin light chain B: VVGGCVAHPHSWPWQVSLRTRFGMHFCGGTLISPEWVLTAAHCLEKSPRPSSYKVILGAHQEVNLEPHVQEIEVSRLFLEPTRKDIALLKLSSPAVITDKVIPACLPSPNYVVADRTECFITGWGETQGTFGAGLLKEAQLPVIENKVCNRYEFLNGRVQSTELCAGHLAGGTDSCQGDSGGPLVCFEKDKYILQGVTSWGLGCARPNKPGVYVRVSRFVTWIEGVMRNN
modifications: plasmin
notes: plasmin from human plasma (Athens Research and Technology), enzyme that degrades fibrin
In the case of B1, the “time in which plasmin degraded the microfibers” value was roughly 24 h in the series with fibrin microfibers (0.1 CU/mL plasmin), roughly 12 h in the series on fibrin microfibers (0.25 CU/mL plasmin), roughly 6 h in the series with fibrin microfibers (1 CU/mL plasmin) and “about 1 hrs” in the series on fibrin microfibers (15 CU/mL plasmin). The cell viability result in the series with ECFCs [2] (1 hr treatment (15 CU/mL plasmin)) and with ECFCs [2] (6 hr treatment (1 CU/mL plasmin)) was “poor cell viability” each time. In addition, the live cells in the series with ECFCs [2] (12 hr treatment (0.25 CU/mL plasmin)) was determined as 80.6±4.3%; in the series with ECFCs [2] (24 hr treatment (0.1 CU/mL plasmin)), 65.2±1.8%.
